The chains are these.
B3: p300 TAZ2 domain, untagged (p300_(TAZ2)) (domain or fragment, human, UniProt Q09472 1722-1812, looked up)
chain: AWTQSPGDSRRLSIQRCIQSLVHACQCRNANCSLPSCQKMKRVVQHTKGCKRKTNGGCPICKQLIALCCYHAKHCQENKCPVPFCLNIKQK
notes: TAZ2 domain of human p300, aa 1722-1812, with a tryptophan substituted at A1723; Uniformly 15N-labeled for NMR, unlabeled in mass photometry; they are printed there only as p300_(TAZ2); also called 15N-labeled p300_(TAZ2); source: E. coli Rosetta-2 (DE3) pLysS, purified (glutathione agarose, TEV cleavage, cation exchange or heparin)

Conditions in all cases: both partners purified
For assay [1], the target named is B3. The assay can be described thus: NMR titration; 1H,15N HSQC of 50–100 μM 15N-labeled p300_(TAZ2), unlabeled peptide titrated; 298 K; 50 mM MES pH 6.5, 150 mM NaCl, 5 mM DTT.
The target of assay [2] is T1, GST-EZH2_(TAD1) (aa 142-160 of EZH2) (human, UniProt Q15910 142-160).
T1 construct: EZH2, human, aa 142-160, made by deletion from the aa 142-231 construct in pGEX-6P-1; Dimeric in mass photometry (~70 kDa); Limits differ from the synthetic EZH2_(TAD1) peptide (142-154); source: E. coli Rosetta-2 (DE3) pLysS, purified (glutathione agarose, Ni-NTA)
T1 chain (looked up): DGTFIEELIKNYDGKVHGD
The assay can be described thus: mass photometry; 20 nM GST-EZH2_(TAD1) with p300_(TAZ2) (0.1 μM); room temperature; 50 mM Tris pH 7.5, 150 mM NaCl, 5 mM DTT.

The target of assay [3] is T2, GST-p300_(TAZ2) (human, UniProt Q09472 1722-1812, tryptophan substituted at A1723).
T2 construct: TAZ2 domain of human p300, aa 1722-1812, with a tryptophan substituted at A1723; pGEX-4T-1 vector with an additional TEV cleavage site; Dimeric in mass photometry (~80 kDa); also called GST-fusion of p300 TAZ2; source: E. coli Rosetta-2 (DE3) pLysS, purified (glutathione agarose, cation exchange or heparin)
T2 sequence (looked up): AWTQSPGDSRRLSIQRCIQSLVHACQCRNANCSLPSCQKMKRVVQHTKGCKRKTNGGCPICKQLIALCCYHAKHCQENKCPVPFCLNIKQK
The experiment in a line: mass photometry; 20 nM GST-p300_(TAZ2) with EZH2_(TAD1-TAD2) (5 μM) or EZH2_(TAD1-TAD2-TAD3) (1 μM); room temperature; 50 mM Tris pH 7.5, 150 mM NaCl, 5 mM DTT.

From paper PMC12312386, “Multiple transactivation domains of EZH2 bind to the TAZ2 domain of p300 and stimulate the acetyltransferase function of p300” (Biochemical Journal, 2025) come the findings set out here.

Several values for one entry are separate records, joined by “and”; a condition that tells them apart may be missing. Identical values can stand only once.

B1: EZH2_(TAD2) peptide (aa 167-185 of EZH2) (peptide, UniProt Q15910 167-185, looked up)
peptide: NDEIFVELVNALGQYNDDD
notes: source: synthetic peptide (SynPeptide Co. Ltd.)
For the molecule B1, the binding result in assay [1] is recorded as “binds”.

B2: EZH2_(TAD3) peptide (aa 220-231 of EZH2) (peptide, UniProt Q15910 220-231, looked up)
peptide: SDKIFEAISSMF
notes: as for B1
For the molecule B2, the binding result in assay [1] is listed as “binds”.

B3: in assay [2], the “stoichiometry N” value was 1 p300_(TAZ2) per GST-EZH2_(TAD1) dimer and 2 p300_(TAZ2) per GST-EZH2_(TAD1) dimer.

B4: EZH2_(TAD1-TAD2-TAD3) (aa 142-231 of EZH2) with C-terminal 6xHis tag (domain or fragment)
chain: not shown
notes: EZH2, human, aa 142-231, holds TAD1, TAD2 and TAD3; pGEX-6P-1 vector; also called triple EZH2_(TAD1-TAD2-TAD3); source: E. coli Rosetta-2 (DE3) pLysS, purified (glutathione agarose, PreScission cleavage, Ni-NTA)
Turning to B4, in assay [3], the “stoichiometry N” value is 6 GST-p300_(TAZ2) per EZH2_(TAD1-TAD2-TAD3).

B5: EZH2_(TAD1) peptide (aa 142-154 of EZH2) (peptide, UniProt Q15910 142-154, looked up)
peptide: DGTFIEELIKNYD
notes: as for B1
As to B5, the binding result in assay [1] is recorded as “binds”.
